Results reported in the supplement of paper PMC12042874.
± gives the uncertainty stated by the source.

Experiment: amyloid nucleation score (Sup35N fusion, yeast selection) (log enrichment); library NNK2; higher = more nucleation; inactive = no reads after selection
Summary of the method: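 Sup35N fusions to peptides of 20 random codons were expressed in psi-negative yeast, induced 24 hours with 100 μM copper sulfate, and grown 7 days at 30°C on medium lacking adenine and uracil. Input and output plasmid inserts were sequenced by Illumina. The nucleation score is the DiMSum log enrichment of output over input reads, centred on the mode score of non-aggregating sequences. Sequences with under 100 input reads were excluded.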

| Substance | amyloid nucleation score |
| --- | --- |
| CKSEYIWYPKFAMGSFDPSQ | inactive |
| LVSFGVYMLSSVRKECHSLN | 0.536 ± 0.49 |
| VSQSDMDLHWLVYRVYWYVF | -0.893 ± 0.44 |
| FRCLTSSANISISTVWYVGH | 4.61 ± 0.09 |
| MFFFYKFMKDKIGN | 4.37 ± 0.051 |
| IEKSMLVVLGINVRVSMGVG | 0.175 ± 0.24 |
| VHLSLGGNIGLDGLQMVGVL | inactive |
| PLILGGGLLWIVC | 0.201 ± 0.74 |
| TWSEWSTCRMGATRSH | 0.301 ± 0.27 |
| IDLSLNLGVRGVRQDETLFA | inactive |
| WSYLVLSPMRRNRVRMVHII | -0.517 ± 0.63 |
| DCYSQPMLRVLDSVAHSVWF | 0.369 ± 0.43 |
| SDRMLCEGNYCWCVSENVLL | 6.12 ± 0.061 |
| AEWLINGISDGLDCVSFSNS | inactive |
| FNMDGYGRTGVRPFCRYVLN | 0.333 ± 0.61 |
| TEELRRFCGSFCTGYISMVW | inactive |
| STEERRWNN | -0.217 ± 0.79 |
| TCCQDYLLIWYCMDSIRNVR | 9.611 ± 0.034 |
| FVRLTRIVESGYYDIFGKIK | -0.429 ± 0.39 |
| TFVHIIHNFVGVQHFKKLGC | 5 ± 0.094 |
| FGVNDLYSDLW | -0.68 ± 0.25 |
| GVVHKDELRGLKVRESSEMG | 0.271 ± 0.48 |
| SVNAIRTQGLRSRMQFMKTG | -0.394 ± 1.1 |
| VLRSTLDD | inactive |

| Substance | amyloid nucleation score |
| --- | --- |
| YMDNCSYRYSVTESTRNTAG | 0.17 ± 0.74 |
| RMRLPPFPIDWSDAYLFWHS | 1.28 ± 0.38 |
| FRGDILRFL | inactive |
| LFYSPSVGCWFLFSYGPHIG | inactive |
| DTQGIR | -0.212 ± 0.65 |
| AYDIHTIREMFRSSSRLYGW | 5.854 ± 0.033 |
| SFGGARVSLLCCFPSTSIAS | 9.374 ± 0.036 |
| VWPLCGCAWRWSGKWGGTRW | 6.41 ± 0.077 |
| SCRVRFNRSCAPGNSQIGMS | 8.674 ± 0.058 |
| YISRILYHNGKSDRDGQRDY | -0.119 ± 0.65 |
| VNPCVWIRIYWRS | -0.014 ± 0.65 |
| TMELFLRRFYIWIKDIDNGR | inactive |
| LGNIGRTFMYHS | 1.09 ± 0.27 |
| LFWFLCNVMERYRWNVDAYR | -0.625 ± 0.45 |
| PMISFSLTMRDNCYSGWLCN | 1.63 ± 0.21 |
| ANNVSGIIVCTNFDILMYGR | 7.791 ± 0.042 |
| SVWCWDHSILLGFNLCNRKM | 6.648 ± 0.062 |
| DTSSYKTYDRLHQLYRNELR | 0.709 ± 0.23 |
| IIKANVSVRYVFDKFHKMVH | 2.83 ± 0.094 |
| YWLNMWFYRSSASYRSMDMD | -0.713 ± 0.55 |
| GTRYSLCTRCG | 0.766 ± 0.5 |
| NDWSHRSIFMMVCFWGVHSH | inactive |
| TFNLKPRFLFV | 5.18 ± 0.087 |
| AANRPGTSC | 0.767 ± 0.74 |

| Substance | amyloid nucleation score |
| --- | --- |
| VLFSRFDSVWHVAIAVSARV | 0.671 ± 0.42 |
| KFSHQVEILPSGTSIGSCER | -0.111 ± 0.63 |
| SVTYWGWPTILAVRKCLFNS | 2.5 ± 0.091 |
| ANWPR | -0.391 ± 0.79 |
| PFFLMISAVISHHNEHRHTM | 5.926 ± 0.058 |
| SFILD | inactive |
| ALPVLIINERTRWGVTLLLP | 0.421 ± 0.39 |
| RAANLSLHSNGDTGGESVSD | inactive |
| FWQVCPLYRSSCIGSGCCIK | 1.78 ± 0.17 |
| GCVTSGMLMTLIIH | -0.218 ± 0.48 |
| SICYFCLFLNIIDSDSIFAV | 5.87 ± 0.059 |
| NKARWAPVRMEALLVAQRVG | 1.28 ± 0.38 |
| SSNYYVLCFTMPYWFYSLV | 1.02 ± 0.33 |
| VTSLHSYSMMFPPMWMSNQS | 1.54 ± 0.32 |
| YLFKPSPTSHYCAFCTVYRN | 3.84 ± 0.079 |
| RYKSFMVQQSIDNRVLVGVC | 0.241 ± 0.8 |
| HYVERWDDAHVFYGWKSDAV | inactive |
| ANMCPYAHRVTGVMFCLLPW | inactive |
| GGDSECGYNGVFVGYAVFWC | 0.128 ± 0.29 |
| CNMFDCCK | 0.175 ± 0.42 |
| GRWVST | 1.29 ± 0.43 |
| KTFFVYIRSNYCV | -1.24 ± 0.62 |
| GWQWRWLHYRSVRINEEMVS | 0.342 ± 0.34 |
| SSQTGTCFARLQSAVFQVVW | 1.69 ± 0.36 |

| Substance | amyloid nucleation score |
| --- | --- |
| RLTVTGVALVFKGFAAEYGL | 5.81 ± 0.066 |
| LAGCSMSGVVEC | 1.13 ± 0.22 |
| SLESSLAYVGSLGIAGGSAQ | 1.11 ± 0.23 |
| ALCGCPCRKPSATVINLPLF | 0.165 ± 0.37 |
| CGTGARVCYCYGFKLSSARG | 0.965 ± 0.6 |
| RSSLIIALCWFR | 5.54 ± 0.059 |
| ICDDNVAVEWLRLTVCTFRL | 0.396 ± 0.28 |
| HMDHARLEVLTVILLGVWGF | 5.11 ± 0.089 |
| KVQNWMLNTHGFYSLRGFDQ | -0.857 ± 0.41 |
| SCCRGEF | -0.235 ± 0.61 |
| HKRCVITLLWADL | 0.344 ± 0.41 |
| GMYYPREIEFLAFWSTTRGR | -0.956 ± 1 |
| VYALCMGLAWKGLDYHKGER | 5.68 ± 0.07 |
| KRQSRAVMVS | 0.037 ± 0.63 |
| DAAHSFYLSSGNESFVLELT | -0.327 ± 0.63 |
| DALDTRKLYN | inactive |
| FAKFQGSKISPVSHTSLLST | inactive |
| SRWLGAKCSSRC | -0.361 ± 0.48 |
| HSLLLRWNGYSM | 4.92 ± 0.1 |
| LTGFLNGAGNN | 1.75 ± 0.12 |
| TMWRVIGSVYFVKFFSATLG | -0.07 ± 0.43 |
| SSGLH | 0.527 ± 0.8 |
| YPGWPMKTVQ | 3.97 ± 0.05 |
| WWGGINSVLVTDEWLVRLGK | -0.166 ± 0.19 |

| Substance | amyloid nucleation score |
| --- | --- |
| ISYTVDQRRFTSLVRCLYDH | 0.322 ± 0.57 |
| FDYKSKKGRNNDWRTVCCVM | 2.21 ± 0.16 |
| SSREYEEGMAGTGGLELLSL | 1.16 ± 0.44 |
| SNAVNCLLCVLTRDLIWMDA | 8.958 ± 0.067 |
| MSMLNRALGILKSTFMINRR | -0.058 ± 0.53 |
| NFEFFYRRNHT | inactive |
| RVLLHSLRKYLIHDCDVYRA | -0.474 ± 0.55 |
| SQSMNGRQMHLYDRPSTGWF | inactive |
| VATAAEWVQAGLE | 2.32 ± 0.11 |
| LYGNYDTSYTLIQVISLRNG | 6.202 ± 0.04 |
| ICCTSSANNSTPPQSCWTPK | 5.84 ± 0.076 |
| DERSLLDLHYCR | 0.912 ± 0.43 |
| RSFGLSDPIKTTGKTSV | inactive |
| ILYGVLTPYFHAVI | -0.003 ± 0.65 |
| SSAWLDLDIMLGLFVIVFTP | 5.439 ± 0.044 |
| NIYIWVSTMFLLKSEQSSSN | 6.038 ± 0.058 |
| GKYMEDYNAENQNPSTMMES | -0.01 ± 0.47 |
| TSLTQDLEMVLSFNFCMGLA | -0.158 ± 0.44 |
| GIFGMC | 0.366 ± 0.56 |
| RREDKLICRFIDVNLEVDW | 2.72 ± 0.066 |
| SSLVNTACDTL | -0.036 ± 0.29 |
| CGFHYFFRSTGYMAVAIIIR | inactive |
| GVMRSCCEIWTFSIVFRMYT | 0.604 ± 0.31 |
| NVMKVLSNRL | 1.61 ± 0.1 |

| Substance | amyloid nucleation score |
| --- | --- |
| AISLYMFVRDIAKSILRQVC | 0.269 ± 0.5 |
| TMLETLRARADLMCQVWYSV | 0.964 ± 0.4 |
| KRSSGRVFHPRMSRW | 0.641 ± 0.4 |
| YRVNALKQIMLRLKQFCRLA | -0.647 ± 0.64 |
| LVLLVPGKLMCF | 4.12 ± 0.081 |
| HVVVDCISNCEFTCMWCSAY | 5.57 ± 0.06 |
| GYSDYVSYVKGC | 0.182 ± 0.8 |
| FVCGGILFLLCFLE | 2.56 ± 0.12 |
| SLPSRYWVSLFCTSLLW | 0.743 ± 0.81 |
| VWEVAMISTINSAGHLCLGD | -0.109 ± 0.76 |
| TQVLYSSCFVVVLSYLSRQD | 4.51 ± 0.086 |
| SVQVMCQSWPLSPLFAPRHR | 5.92 ± 0.039 |
| HFIFVAYRWVSNNAELDLNF | -0.724 ± 0.63 |
| NPWIAIKWHNTVFLRHIWQM | -0.494 ± 0.22 |
| LVLYGNVA | 0.28 ± 0.74 |
| MFVGGGSSSTWLGNVWYVGS | -0.337 ± 1.1 |
| TCVCWGPCRSV | -0.895 ± 1 |
| NVCNTNWESVRKAWFSNMMV | 0.775 ± 0.52 |
| LLAKNTSRNRFTHDFVPKVR | inactive |
| TYDYMKRDIMFTWLKRERKA | 1.04 ± 0.33 |
| GRTYNVTEFLKSRTRWGSPL | 1.19 ± 0.59 |
| NTSFFDGTFLY | 0.598 ± 0.57 |
| LGMCYWGLVTCH | 0.749 ± 0.38 |
| VHMVPHCATW | 1.01 ± 0.38 |

| Substance | amyloid nucleation score |
| --- | --- |
| WYALARCYCDGPFSGGWFRM | -0.022 ± 0.27 |
| EVANGKFCNFGSLYDLMWWE | -0.348 ± 0.76 |
| SLSLGLSSCEPYYAVC | -0.276 ± 0.28 |
| PSSDRMSKCVFRVRNCQEAL | 0.157 ± 0.55 |
| NTCRSYNRNVIIRARPRPGL | 5.14 ± 0.069 |
| REGVQVIQTGLVEYKLG | -0.029 ± 0.79 |
| LQCEIKPMGDTIMW | 1.47 ± 0.54 |
| VGTAKYYFKGCLGTPRSNNL | inactive |
| RNWPVIVVWAKTGCQCSFLM | -0.544 ± 0.36 |
| VRFYDLFFKVGRQVYCLNNS | -0.694 ± 0.55 |
| CRLFQSQIYERYTSRCVYRF | -1.05 ± 0.79 |
| RHLISSLRELHTTLNLHRPE | 0.101 ± 0.76 |
| SNVTTYSNVSYIRHHSHYLG | 1.32 ± 0.44 |
| WVCSFHYAEYSLRVIAARFP | 0.081 ± 0.8 |
| YVWSWVGQYCRVIAAHGIWW | 0.79 ± 0.26 |
| FFEMFGCHMFLLMAYLTI | 0.164 ± 0.63 |
| MVANG | 0.317 ± 0.62 |
| MTLVRFSRIGALKLCLQKES | -0.337 ± 0.39 |
| KITMDPGLVRIHNFGQTSLV | 0.408 ± 0.62 |
| SISRISPTQGIIGQTRFFYV | -1.14 ± 0.76 |
| DLIMETYHLVSKCTFCGIEN | 6.473 ± 0.06 |
| NFCPLPLVRCIECLRTMDGV | inactive |
| YIPARSRMGYVAQKLGTTRL | -0.025 ± 0.61 |
| FCWRNCLNVIDTF | -1.22 ± 0.35 |
